The values below are quoted from earlier work in PMC6162179.

The term pKd denotes −log10 of the Kd, conventionally taken in molar units.

pKd: −log10 of the molar value.

For data set [1], the target named is Thioredoxin (Escherichia coli) [thioredoxin: P0AA25].
The target of data set [2] is gp5 DNA polymerase (Escherichia phage T7) (UniProt P00581).
Sequence of gp5 DNA polymerase (Escherichia phage T7) (P00581 whole entry): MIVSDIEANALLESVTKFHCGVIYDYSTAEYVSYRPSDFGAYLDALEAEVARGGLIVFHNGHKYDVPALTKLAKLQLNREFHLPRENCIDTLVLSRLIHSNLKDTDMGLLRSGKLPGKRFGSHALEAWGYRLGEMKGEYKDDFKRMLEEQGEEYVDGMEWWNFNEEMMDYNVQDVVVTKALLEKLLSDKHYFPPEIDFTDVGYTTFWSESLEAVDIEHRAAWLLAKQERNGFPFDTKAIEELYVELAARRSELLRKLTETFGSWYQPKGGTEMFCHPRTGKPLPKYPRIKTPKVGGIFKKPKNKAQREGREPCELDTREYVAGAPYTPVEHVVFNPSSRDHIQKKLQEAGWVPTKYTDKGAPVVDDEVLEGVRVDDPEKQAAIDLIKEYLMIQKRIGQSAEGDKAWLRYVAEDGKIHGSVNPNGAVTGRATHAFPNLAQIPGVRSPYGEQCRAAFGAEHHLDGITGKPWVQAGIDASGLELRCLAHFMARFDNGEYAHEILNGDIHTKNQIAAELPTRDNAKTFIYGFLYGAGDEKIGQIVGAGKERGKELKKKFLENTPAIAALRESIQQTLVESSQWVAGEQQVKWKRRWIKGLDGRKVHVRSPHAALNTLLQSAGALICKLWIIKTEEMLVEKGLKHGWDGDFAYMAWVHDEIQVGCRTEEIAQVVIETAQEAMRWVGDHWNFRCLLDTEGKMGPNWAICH

Sequence of gp2.5 (P03696 whole entry): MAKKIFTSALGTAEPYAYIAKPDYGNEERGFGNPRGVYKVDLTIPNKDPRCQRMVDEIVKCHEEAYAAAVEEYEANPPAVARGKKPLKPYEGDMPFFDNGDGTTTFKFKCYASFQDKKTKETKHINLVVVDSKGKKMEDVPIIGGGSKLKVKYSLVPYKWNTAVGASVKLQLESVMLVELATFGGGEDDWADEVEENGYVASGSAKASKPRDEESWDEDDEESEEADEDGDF
Sequence of Thioredoxin (Escherichia coli) [thioredoxin: P0AA25] (P0AA25 2-109): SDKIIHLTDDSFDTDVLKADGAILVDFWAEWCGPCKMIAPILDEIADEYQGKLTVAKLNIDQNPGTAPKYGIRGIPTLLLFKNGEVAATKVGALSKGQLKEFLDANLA

gp2.5 (from UniProt P03696): the results for the pKd in data set [1] and in data set [2] were 3.30 and 6.00, respectively.
